pKd: −log10 of the molar value.
Molecular target: Calmodulin (His-CaM) (UniProt P0DP23)
Assay: BLI; ForteBio Octet Red; increasing concentrations of ASPM IQ motif (GST-IQ) to CaM; 1:1 binding model; Kd calculated as Koff/Kon

| fold increase of Kd against T. truncatus [fold] | pKd | Substance |
| --- | --- | --- |
| 2.2 | – | GST-IQ fusion protein, ASPM 23rd IQ motif and its adjacent 16 amino acid motif, Physeter macrocephalus (domain or fragment) |
| – | 7.75 | GST-IQ fusion protein, ASPM 23rd IQ motif and its adjacent 16 amino acid motif, Tursiops truncatus (domain or fragment) |
